Measured values reported in paper PMC11399405.

What was measured:
[1] = target: SPD_1558 (Streptococcus pneumoniae D39, UniProt A0A0H2ZMV6 1-103); test: EMSA
[2] = target: SPD_1777 (Streptococcus pneumoniae D39, UniProt A0A0H2ZNW3 1-317); test: EMSA

B1: IGR1729/1728 and flanking RNA (55 nt) (ssRNA)
RNA: GCUAGUGCAGAUGCUCCAGUUAAAAAAGAGUAGGAGGUAGAGGAAAUGUCUCAAU
B1: binds [1]; binds [2].
